Measurements: patent publication US20060211087A1 (SALK INSTITUTE FOR BIOLOGICAL STUDIES, published 2006)

Target: T1, CRFR2β (CRF receptor 2 beta) (human, UniProt Q60748 35-411 (mouse entry))
T1 construct: also called CRFR2b; CRFRIIβ
Assay: 125I-BMP7 tracer (5x10^5 cpm) with or without unlabeled BMP7, Ni-NTA pull-down, gamma counting; CRFR2β as control receptor
Experimental: In a particular example, BMPRII, ALK3 and CRFR2β were incubated with 5×10⁵ cpm ¹²⁵I-BMP7 tracer in the presence or absence of 40 nM unlabeled BMP7 as competitor. BMPRII and ALK3 are type II and type I receptors of BMP7, respectively. CRFR2β is a G-protein coupled receptor with no known affinity for BMP7 and was included as a control. Samples were prepared in triplicate in 1.7 ml eppendorf tubes in a final volume of 1 ml binding buffer (150 mM NaCl, 50 mM Tris (pH 7.5), 0.1% BSA). Binding was performed for […] at room temperature. After an initial 60 minutes of binding, 20 μl of 50% Ni—NTA resin (Qiagen) was added to each sample and allowed to bind for the balance of the […] incubation period. Complexes were precipitated by centrifugation and washed three times in 1 ml binding buffer. After the final wash, bound ¹²⁵I-BMP7 tracer was quantified in a gamma counter. BMP7 was iodinated using a modified Cloramine-T procedure (see, e.g., Lawler et al., J. Neurosci. Meth., 49:141-53, 1993).

T1 sequence (Q60748 other isoform, or with tags, fused parts or gaps): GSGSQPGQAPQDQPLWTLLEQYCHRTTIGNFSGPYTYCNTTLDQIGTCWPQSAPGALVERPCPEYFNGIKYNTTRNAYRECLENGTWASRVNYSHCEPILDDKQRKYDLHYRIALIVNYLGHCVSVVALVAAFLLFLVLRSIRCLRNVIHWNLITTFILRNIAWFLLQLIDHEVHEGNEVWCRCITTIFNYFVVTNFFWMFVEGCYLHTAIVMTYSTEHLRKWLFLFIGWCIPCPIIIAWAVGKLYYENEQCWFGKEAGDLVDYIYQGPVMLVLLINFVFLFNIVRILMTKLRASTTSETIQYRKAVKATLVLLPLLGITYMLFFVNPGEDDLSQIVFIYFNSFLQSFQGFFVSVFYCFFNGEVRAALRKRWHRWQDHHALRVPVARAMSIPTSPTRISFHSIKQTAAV

B1: BMP7 (ligand, UniProt P18075 293-431, looked up)
chain: STGSKQRSQNRSKTPKNQEALRMANVAENSSSDQRQACKKHELYVSFRDLGWQDWIIAPEGYAAYYCEGECAFPLNSYMNATNHAIVQTLVHFINPETVPKPCCAPTQLNAISVLYFDDSSNVILKKYRNMVVRACGCH
modifications: 125I-iodinated by a modified Chloramine-T procedure (tracer); unlabeled form used as competitor
notes: also called unlabeled BMP7
- binding result: no binding (tested: 40 nM unlabeled BMP7)
